Biological target: QC (Homo sapiens, UniProt Q16769)
Test: LC/MS analysis of QC-catalyzed pyroglutamate formation
Assay type: biochemical

Chain of QC (Q16769 29-361): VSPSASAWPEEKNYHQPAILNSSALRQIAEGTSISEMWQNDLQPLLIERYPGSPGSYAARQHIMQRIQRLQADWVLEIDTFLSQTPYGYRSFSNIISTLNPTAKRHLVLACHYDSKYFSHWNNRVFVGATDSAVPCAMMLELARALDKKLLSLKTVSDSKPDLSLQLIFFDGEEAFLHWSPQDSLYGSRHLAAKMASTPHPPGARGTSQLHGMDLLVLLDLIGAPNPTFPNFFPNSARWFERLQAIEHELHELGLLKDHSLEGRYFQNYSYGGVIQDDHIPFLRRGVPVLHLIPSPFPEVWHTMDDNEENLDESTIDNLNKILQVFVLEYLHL

B1: MCP-2 isoforms: Human Monocyte Chemotactic Protein 2 (MCP-2) isoforms, 76 residue chemokine (protein, UniProt P80075 24-99, looked up)
C-C motif chemokine 8: QPDSVSIPITCCFNVINRKIPIQRLESYTRITNIQCPKEAVIFKTKRGKEVCADPKERWVRDSMKHLDQIFQNLKP
With B1 as the molecule, how does the “formation of N-terminal pyroglutamate catalyzed by QC” value read?
The value was “is catalyzed by QC”.

Reference: US7462599B2, “Use of effectors of glutaminyl and glutamate cyclases” (Probiodrug AG, priority 2003, dated 2008)
